B1: DDX5-001 (YLLPAIVHI from DDX5) (peptide)
peptide: YLLPAIVHI
notes: Peptide of the negative control pMHC for the T-cell stimulations; also called 665

target: T1, HLA-A*02:01 (human); assay: UV peptide exchange ELISA
T1 construct: monomers captured on streptavidin plates; also called MHC class I
Procedure, shortened: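 Peptide-MHC complexes formed by UV-triggered exchange of a cleavable peptide for the test peptide, with stabilised complexes indicating binding. Exchange products diluted 100 fold onto streptavidin-coated wells, 1h at 37° C.; HRP anti-β2m (2 μg/ml), TMB, absorbance at 450 nm gives exchange yield.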

Binder	peptide exchange yield
IMQDFPAEIFL	≥ 75%
SLFIGEKAVLL	50 to 75%
SLFSSLEPQIQPV	50 to 75%
GLLDYPVGV	50 to 75%
YLIPFTGIVGL	20 to 50%
YILPTETIYV	≥ 75%
NLIGKIENV	50 to 75%
GLLEVMVNL	50 to 75%
SLMELPRGLFL	≥ 75%
FLLVGDLMAV	50 to 75%
ILVEADGAWVV	≥ 75%
TLLAEALVTV	50 to 75%
FQLDPSSGVLVTV	50 to 75%
ALLDPEVLSIFV	50 to 75%
NIFDLQIYV	50 to 75%
ILIDSIYKV	50 to 75%
SLLELDGINL	50 to 75%
KMSELRVTL	50 to 75%
GILARIASV	50 to 75%
VTFGEKLLGV	20 to 50%
ALPEAPAPLLPHIT	20 to 50%
FLSSVTYNL	50 to 75%
FLYDNLVESL	20 to 50%
FLFSQLQYL	20 to 50%
ILAPTVMMI	50 to 75%
TLLQIIETV	50 to 75%

target: T2, HLA-A*02:01 (human); assay: pMHC used for negative control stimulations, biotin-pMHC on streptavidin beads
T2 construct: Construct limits and biotin tag are not described

Binder	binding result
B1	binds

target: T2, HLA-A*02:01; assay: pMHC complex coated on artificial APCs and used as fluorescent multimer A*02/SeqID No 662

Binder	binding result
KIQEILTQV (also called IGF2BP3 peptide) [SeqID No 662 peptide (KIQEILTQV)]	binds

target: T2, HLA-A*02:01; assay: pMHC complex coated on artificial APCs and used as fluorescent multimer A*02/SeqID No 663

Binder	binding result
KIQEMQHFL (also called MMP12 peptide) [SeqID No 663 peptide (KIQEMQHFL)]	binds

Source: patent US20170037110A1 (IMMATICS BIOTECHNOLOGIES, published 2017)
